According to patent publication US10500249B2, “Compositions and methods for preventing or treating diseases, conditions, or processes characterized by aberrant fibroblast proliferation and extracellular matrix deposition” (MOERAE MATRIX, INC., priority 2014, dated 2019):

What was measured:
Experiment in all cases: Kinase Profiling Assay
Format in all cases: biochemical
Details in all cases: 100 μM
Bmx (h) = molecular target: T1, Bmx (h) (Homo sapiens, UniProt P51813)
T1 sequence (P51813 1-675): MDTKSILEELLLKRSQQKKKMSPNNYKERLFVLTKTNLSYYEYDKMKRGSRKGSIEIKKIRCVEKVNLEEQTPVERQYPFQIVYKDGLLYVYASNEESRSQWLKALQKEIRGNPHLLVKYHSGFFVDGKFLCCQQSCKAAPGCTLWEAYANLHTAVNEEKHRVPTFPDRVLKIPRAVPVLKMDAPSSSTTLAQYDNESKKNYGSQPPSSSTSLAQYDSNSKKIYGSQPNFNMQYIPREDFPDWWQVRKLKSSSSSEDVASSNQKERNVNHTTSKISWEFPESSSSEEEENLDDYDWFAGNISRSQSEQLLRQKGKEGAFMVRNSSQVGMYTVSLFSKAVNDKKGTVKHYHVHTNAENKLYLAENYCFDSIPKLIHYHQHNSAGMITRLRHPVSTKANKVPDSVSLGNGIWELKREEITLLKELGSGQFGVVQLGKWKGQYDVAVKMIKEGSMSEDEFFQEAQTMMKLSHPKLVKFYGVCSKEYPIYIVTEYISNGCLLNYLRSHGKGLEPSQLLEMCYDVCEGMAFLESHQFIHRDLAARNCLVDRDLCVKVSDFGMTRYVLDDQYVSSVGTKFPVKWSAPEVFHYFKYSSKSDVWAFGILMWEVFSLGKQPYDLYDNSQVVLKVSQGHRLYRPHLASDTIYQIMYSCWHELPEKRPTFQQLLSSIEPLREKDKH
Method in brief: (§1)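 Kinase inhibition by MK2 inhibitory peptides was profiled radiometrically, with substrate phosphorylation from labeled ATP read by scintillation after capture on a charged filter. Values are relative to 100% activity and measured in duplicate.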

Ros (h) = Ros (h) (Homo sapiens, UniProt P08922)
Method in brief: as §1

PKCμ (h) = molecular target: T2, PKCμ (h) (Homo sapiens, UniProt Q15139)
T2 sequence (Q15139 1-912): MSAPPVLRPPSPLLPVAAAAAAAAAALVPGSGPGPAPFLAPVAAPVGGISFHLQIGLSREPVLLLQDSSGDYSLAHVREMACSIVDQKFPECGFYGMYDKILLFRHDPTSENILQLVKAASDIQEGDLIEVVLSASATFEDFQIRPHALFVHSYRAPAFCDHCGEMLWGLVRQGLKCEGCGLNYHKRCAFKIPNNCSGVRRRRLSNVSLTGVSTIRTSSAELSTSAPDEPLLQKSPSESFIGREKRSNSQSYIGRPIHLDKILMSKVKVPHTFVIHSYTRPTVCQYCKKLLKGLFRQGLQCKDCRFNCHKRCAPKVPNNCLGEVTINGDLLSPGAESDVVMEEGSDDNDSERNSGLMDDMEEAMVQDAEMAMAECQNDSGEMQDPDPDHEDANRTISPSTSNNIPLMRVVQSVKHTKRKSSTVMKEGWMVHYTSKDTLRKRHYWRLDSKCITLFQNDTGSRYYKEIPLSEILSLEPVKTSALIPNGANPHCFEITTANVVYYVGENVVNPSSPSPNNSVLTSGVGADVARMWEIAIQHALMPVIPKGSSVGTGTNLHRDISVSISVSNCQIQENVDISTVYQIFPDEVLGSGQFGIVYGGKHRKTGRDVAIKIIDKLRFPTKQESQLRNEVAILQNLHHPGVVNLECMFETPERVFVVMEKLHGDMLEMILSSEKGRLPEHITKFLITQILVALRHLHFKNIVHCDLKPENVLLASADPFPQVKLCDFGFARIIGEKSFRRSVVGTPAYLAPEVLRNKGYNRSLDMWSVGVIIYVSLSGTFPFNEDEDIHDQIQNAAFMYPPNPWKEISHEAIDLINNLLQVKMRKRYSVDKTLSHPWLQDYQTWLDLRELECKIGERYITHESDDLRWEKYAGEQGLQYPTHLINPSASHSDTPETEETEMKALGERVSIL
Method in brief: as §1

SGK3 (h) = molecular target: T3, SGK3 (h) (Homo sapiens, UniProt Q96BR1)
T3 sequence (Q96BR1 1-496): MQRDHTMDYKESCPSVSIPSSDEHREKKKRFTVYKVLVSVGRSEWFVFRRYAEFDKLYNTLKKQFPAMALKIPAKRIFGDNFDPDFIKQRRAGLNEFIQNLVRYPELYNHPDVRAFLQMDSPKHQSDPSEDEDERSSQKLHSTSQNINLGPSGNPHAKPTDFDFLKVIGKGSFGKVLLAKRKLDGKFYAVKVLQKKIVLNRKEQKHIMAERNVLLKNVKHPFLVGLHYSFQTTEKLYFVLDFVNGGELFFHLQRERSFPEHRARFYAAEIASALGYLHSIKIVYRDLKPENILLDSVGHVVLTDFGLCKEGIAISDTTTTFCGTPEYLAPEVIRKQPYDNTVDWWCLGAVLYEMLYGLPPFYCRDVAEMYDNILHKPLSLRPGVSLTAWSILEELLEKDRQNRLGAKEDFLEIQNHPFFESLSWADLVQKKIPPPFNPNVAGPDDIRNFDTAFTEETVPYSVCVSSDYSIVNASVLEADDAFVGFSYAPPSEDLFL
Method in brief: as §1

EGFR(T790M, L858R) (h) = molecular target: T4, EGFR(T790M, L858R) (h) (Homo sapiens, UniProt P00533, L858R/T790M)
T4 construct: purchased Millipore
Method in brief: as §1

PAK5 (h) = molecular target: T5, PAK5 (h) (Homo sapiens, UniProt Q9P286)
T5 construct: purchased Millipore
T5 sequence (Q9P286 whole entry): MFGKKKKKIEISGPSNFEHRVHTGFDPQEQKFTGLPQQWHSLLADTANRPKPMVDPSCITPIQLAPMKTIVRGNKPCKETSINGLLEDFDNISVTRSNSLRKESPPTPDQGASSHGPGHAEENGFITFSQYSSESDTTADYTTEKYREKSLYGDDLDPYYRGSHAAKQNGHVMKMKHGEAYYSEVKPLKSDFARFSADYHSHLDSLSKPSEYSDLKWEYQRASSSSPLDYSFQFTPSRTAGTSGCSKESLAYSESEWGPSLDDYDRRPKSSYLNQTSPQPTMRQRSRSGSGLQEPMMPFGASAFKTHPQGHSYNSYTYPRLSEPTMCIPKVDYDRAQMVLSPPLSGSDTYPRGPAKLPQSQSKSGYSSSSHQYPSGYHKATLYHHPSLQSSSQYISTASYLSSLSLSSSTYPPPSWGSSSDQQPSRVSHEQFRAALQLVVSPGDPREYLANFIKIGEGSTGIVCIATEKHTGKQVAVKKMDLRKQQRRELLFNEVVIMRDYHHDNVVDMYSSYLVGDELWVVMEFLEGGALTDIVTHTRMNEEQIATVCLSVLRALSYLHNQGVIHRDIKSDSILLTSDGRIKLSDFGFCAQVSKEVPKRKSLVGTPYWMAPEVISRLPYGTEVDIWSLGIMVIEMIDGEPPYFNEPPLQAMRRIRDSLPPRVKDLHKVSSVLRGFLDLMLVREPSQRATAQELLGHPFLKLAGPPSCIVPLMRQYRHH
Method in brief: as §1

CK1δ (h) = molecular target: T6, CK1δ (h) (Homo sapiens, UniProt P48730)
T6 construct: purchased Millipore
T6 sequence (P48730 whole entry): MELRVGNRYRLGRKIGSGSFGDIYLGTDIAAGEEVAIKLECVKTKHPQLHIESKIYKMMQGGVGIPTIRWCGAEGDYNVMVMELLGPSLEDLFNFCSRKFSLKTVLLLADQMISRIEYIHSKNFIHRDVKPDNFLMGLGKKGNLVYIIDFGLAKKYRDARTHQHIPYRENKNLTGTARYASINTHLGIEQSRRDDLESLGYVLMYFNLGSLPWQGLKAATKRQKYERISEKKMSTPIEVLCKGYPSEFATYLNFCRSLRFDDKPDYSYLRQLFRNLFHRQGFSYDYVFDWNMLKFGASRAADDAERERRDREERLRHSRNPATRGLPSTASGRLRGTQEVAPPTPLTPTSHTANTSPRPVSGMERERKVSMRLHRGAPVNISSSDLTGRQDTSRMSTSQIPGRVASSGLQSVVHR
Method in brief: as §1

IRR (h) = molecular target: T7, IRR (h) (Homo sapiens, UniProt P14616)
T7 construct: purchased Millipore
Method in brief: as §1

PDGFRβ (h) = molecular target: T8, PDGFRβ (h) (Homo sapiens, UniProt P09619)
T8 construct: purchased Millipore
T8 sequence (P09619 33-1106): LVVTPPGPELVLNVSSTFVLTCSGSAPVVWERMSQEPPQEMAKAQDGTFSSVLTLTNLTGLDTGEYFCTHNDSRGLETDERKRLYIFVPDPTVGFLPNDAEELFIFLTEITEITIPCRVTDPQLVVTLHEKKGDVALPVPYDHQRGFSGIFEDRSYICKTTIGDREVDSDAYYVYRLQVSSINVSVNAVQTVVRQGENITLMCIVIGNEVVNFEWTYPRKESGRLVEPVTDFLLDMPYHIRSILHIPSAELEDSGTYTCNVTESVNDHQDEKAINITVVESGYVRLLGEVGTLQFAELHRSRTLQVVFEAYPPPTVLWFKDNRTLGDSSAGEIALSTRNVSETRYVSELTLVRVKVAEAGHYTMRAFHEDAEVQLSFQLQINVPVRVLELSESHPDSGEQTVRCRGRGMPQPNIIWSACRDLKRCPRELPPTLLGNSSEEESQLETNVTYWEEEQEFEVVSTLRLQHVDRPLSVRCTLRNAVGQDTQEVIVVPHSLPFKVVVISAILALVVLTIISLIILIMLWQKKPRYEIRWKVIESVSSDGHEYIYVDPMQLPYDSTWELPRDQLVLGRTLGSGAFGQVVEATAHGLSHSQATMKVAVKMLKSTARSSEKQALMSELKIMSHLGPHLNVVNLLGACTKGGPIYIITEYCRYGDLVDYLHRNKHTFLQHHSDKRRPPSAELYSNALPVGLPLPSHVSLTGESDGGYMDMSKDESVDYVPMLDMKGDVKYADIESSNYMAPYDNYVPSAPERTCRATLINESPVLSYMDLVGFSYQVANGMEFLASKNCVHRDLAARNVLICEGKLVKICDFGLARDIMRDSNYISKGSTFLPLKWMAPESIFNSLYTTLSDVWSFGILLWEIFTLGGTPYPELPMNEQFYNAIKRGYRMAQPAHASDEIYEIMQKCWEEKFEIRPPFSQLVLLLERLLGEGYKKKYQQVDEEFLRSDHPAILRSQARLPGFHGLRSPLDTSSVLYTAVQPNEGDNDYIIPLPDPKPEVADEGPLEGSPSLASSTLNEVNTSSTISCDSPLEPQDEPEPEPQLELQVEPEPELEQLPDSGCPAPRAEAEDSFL
Method in brief: as §1

MLK1 (h) = molecular target: T9, MLK1 (h) (Homo sapiens, UniProt P80192)
T9 construct: purchased Millipore
T9 sequence (P80192 whole entry): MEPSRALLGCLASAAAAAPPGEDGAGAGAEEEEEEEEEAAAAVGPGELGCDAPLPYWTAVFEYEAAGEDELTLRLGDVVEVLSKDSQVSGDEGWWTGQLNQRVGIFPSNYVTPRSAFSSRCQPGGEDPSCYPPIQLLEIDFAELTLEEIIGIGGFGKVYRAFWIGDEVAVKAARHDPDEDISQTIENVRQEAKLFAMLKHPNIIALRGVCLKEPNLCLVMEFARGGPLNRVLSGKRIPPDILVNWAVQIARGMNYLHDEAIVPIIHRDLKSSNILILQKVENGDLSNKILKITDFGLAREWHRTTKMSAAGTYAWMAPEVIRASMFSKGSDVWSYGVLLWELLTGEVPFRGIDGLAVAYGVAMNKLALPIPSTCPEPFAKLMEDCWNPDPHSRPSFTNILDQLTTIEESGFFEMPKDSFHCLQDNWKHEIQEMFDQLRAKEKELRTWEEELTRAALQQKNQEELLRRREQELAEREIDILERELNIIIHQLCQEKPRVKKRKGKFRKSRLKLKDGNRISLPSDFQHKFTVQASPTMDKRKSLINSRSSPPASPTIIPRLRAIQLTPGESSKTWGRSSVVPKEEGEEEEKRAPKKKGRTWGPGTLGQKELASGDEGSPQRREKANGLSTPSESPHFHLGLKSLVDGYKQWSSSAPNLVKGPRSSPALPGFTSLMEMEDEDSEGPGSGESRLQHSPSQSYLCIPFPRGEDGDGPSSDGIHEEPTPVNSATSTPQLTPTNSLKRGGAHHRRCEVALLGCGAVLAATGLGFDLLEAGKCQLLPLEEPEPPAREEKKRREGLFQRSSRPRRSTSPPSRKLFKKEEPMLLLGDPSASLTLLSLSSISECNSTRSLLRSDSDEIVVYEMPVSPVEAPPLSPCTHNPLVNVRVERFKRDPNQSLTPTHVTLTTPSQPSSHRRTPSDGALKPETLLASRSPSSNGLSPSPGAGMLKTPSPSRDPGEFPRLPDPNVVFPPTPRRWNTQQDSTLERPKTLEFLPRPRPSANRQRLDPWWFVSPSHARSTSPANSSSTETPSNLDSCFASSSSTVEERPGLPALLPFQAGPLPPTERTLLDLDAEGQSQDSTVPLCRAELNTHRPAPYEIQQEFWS
Method in brief: as §1

ROCK-I (h) = ROCK-I (h) (Homo sapiens, UniProt Q13464)
Chain of ROCK-I (h) (Q13464 whole entry): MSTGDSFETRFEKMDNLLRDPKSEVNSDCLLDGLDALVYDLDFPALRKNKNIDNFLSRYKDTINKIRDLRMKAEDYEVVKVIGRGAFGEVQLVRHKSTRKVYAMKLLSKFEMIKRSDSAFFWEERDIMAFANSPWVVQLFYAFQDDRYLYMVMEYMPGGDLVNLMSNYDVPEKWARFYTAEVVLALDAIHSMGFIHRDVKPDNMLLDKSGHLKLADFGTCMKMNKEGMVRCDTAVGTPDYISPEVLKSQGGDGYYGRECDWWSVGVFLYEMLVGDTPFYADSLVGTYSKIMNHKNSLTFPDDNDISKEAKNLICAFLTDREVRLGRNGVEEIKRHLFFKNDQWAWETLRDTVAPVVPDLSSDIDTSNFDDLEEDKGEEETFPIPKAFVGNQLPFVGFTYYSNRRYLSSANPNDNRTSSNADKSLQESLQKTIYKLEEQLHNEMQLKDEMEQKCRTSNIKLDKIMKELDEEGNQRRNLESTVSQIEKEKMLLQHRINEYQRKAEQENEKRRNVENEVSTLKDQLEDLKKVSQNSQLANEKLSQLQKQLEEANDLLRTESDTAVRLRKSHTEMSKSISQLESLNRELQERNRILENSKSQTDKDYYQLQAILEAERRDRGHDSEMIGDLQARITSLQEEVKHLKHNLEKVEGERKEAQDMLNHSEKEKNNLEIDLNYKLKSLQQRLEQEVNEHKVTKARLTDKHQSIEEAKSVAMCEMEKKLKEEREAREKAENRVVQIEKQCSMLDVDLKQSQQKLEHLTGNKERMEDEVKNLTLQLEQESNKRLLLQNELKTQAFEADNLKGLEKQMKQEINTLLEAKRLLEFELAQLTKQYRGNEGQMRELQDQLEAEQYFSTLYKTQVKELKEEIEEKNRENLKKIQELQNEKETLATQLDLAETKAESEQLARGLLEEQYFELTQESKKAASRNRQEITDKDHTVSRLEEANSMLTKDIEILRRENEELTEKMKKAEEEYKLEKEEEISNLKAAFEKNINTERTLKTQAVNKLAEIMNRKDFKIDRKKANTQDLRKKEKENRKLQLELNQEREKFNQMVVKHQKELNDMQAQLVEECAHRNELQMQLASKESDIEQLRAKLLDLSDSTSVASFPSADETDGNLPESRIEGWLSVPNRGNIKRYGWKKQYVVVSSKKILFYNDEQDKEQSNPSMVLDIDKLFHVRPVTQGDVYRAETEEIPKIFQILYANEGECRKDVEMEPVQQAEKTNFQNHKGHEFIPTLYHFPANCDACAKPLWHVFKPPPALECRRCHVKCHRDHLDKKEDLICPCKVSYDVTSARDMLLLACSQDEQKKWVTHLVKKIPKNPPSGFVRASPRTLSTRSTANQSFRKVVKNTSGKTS
Method in brief: as §1

Flt3(D835Y) (h) = Flt3(D835Y) (h) (Homo sapiens, UniProt P36888, D835Y)
Method in brief: as §1

In the case of “YARAAARQARAKALNRQLGVA (Mammalian) [MMI-0200]”, the “% activity” value (Bmx (h)) is reported as 76%, the “% activity” value (Ros (h)) is reported as 86% and the “% activity” value (PKCμ (h)) is reported as 73%. The “% activity” value (SGK3 (h)) was 58%, the “% activity” value (EGFR(T790M, L858R) (h)) was 108% and the “% activity” value (PAK5 (h)) was 100%. For the same sequence, the “% activity” value (CK1δ (h)) was 92%, the “% activity” value (IRR (h)) was 69% and the “% activity” value (PDGFRβ (h)) was 137%. The “% activity” value (MLK1 (h)) was 84%.
In the case of “HRRIKAWLKKIKALARQLGVAA (Mammalian) [MMI-0500]”, the “% activity” value (Bmx (h)) is reported as 45%, the “% activity” value (Ros (h)) is reported as 150% and the “% activity” value (ROCK-I (h)) is reported as 17%. For the same sequence, the “% activity” value (PKCμ (h)) was 10%, the “% activity” value (SGK3 (h)) was −3% and the “% activity” value (EGFR(T790M, L858R) (h)) was 53%. For the same sequence, the “% activity” value (PAK5 (h)) was 125%, the “% activity” value (CK1δ (h)) was 78% and the “% activity” value (IRR (h)) was 10%. The “% activity” value (Flt3(D835Y) (h)) was 65%, the “% activity” value (PDGFRβ (h)) was 40% and the “% activity” value (MLK1 (h)) was 43%.
For FAKLAARLYRKALARQLGVAA [MMI-0300], the “% activity” value (Ros (h)) was 95%, the “% activity” value (ROCK-I (h)) was 79% and the “% activity” value (PKCμ (h)) was 22%. The “% activity” value (SGK3 (h)) was 10%, the “% activity” value (EGFR(T790M, L858R) (h)) was 85% and the “% activity” value (PAK5 (h)) was 110%. For the same sequence, the “% activity” value (CK1δ (h)) was 92%, the “% activity” value (IRR (h)) was 8% and the “% activity” value (Flt3(D835Y) (h)) was 80%. For the same sequence, the “% activity” value (PDGFRβ (h)) was 81% and the “% activity” value (MLK1 (h)) was 40%.
In the case of KAFAKLAARLYRKALARQLGVAA [MMI-0400], the “% activity” value (Bmx (h)) is reported as 26%, the “% activity” value (Ros (h)) is reported as 99% and the “% activity” value (ROCK-I (h)) is reported as 73%. The “% activity” value (PKCμ (h)) was 14%, the “% activity” value (SGK3 (h)) was 8% and the “% activity” value (EGFR(T790M, L858R) (h)) was 78%. The “% activity” value (CK1δ (h)) was 93%, the “% activity” value (IRR (h)) was 8% and the “% activity” value (Flt3(D835Y) (h)) was 71%. The “% activity” value (PDGFRβ (h)) was 53% and the “% activity” value (MLK1 (h)) was 33%.
